The source of these data is US20200055939A1 (Genentech, published 2020).

Holding throughout (assay): SPR, Fab over captured MICA*008.mIgG2a Ala variant; KD relative to wild type
(In general: SPR reads the build-up and loss of mass on a sensor chip optically.)

The target in assay [1] is T1, S245A.
T1 construct: % monomer 93.96; also called MICA*008.mIgG2a S245A
T1 chain: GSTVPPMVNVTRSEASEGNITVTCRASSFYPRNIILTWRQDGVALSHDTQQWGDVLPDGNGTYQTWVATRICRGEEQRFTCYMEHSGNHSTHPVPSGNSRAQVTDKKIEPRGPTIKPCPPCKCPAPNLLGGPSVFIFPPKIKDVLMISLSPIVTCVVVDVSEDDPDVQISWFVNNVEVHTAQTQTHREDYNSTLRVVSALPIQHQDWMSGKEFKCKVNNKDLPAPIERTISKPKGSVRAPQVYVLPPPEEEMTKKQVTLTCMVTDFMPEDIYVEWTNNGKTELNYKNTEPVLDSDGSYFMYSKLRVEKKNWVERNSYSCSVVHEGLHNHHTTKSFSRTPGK

Assay [2] addresses T2, E276A.
T2 construct: % monomer 86.14; also called MICA*008.mIgG2a E276A
T2 chain: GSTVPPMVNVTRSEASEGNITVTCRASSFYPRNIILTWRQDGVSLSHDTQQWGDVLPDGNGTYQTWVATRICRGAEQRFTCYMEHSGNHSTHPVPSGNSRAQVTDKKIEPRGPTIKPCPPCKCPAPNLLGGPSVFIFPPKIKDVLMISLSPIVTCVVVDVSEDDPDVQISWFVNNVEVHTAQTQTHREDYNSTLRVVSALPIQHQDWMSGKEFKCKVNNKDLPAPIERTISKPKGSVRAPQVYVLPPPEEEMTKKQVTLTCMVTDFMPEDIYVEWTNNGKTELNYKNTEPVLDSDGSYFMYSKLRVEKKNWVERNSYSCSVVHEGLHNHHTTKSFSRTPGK

Assay [3] addresses T3, S297A.
T3 construct: % monomer 89.24; also called MICA*008.mIgG2a S297A
T3 chain: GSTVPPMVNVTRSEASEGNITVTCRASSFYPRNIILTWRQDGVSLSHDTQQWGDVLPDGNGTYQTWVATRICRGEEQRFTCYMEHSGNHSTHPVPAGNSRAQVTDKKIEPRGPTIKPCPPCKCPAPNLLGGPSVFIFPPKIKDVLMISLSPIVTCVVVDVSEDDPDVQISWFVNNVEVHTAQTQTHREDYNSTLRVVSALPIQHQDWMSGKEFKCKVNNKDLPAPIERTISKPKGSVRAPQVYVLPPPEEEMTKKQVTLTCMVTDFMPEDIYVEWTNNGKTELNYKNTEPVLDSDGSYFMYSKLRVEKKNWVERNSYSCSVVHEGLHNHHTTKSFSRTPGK

The target in assay [4] is T4, P294A.
T4 construct: % monomer 89.16; also called MICA*008.mIgG2a P294A
T4 chain: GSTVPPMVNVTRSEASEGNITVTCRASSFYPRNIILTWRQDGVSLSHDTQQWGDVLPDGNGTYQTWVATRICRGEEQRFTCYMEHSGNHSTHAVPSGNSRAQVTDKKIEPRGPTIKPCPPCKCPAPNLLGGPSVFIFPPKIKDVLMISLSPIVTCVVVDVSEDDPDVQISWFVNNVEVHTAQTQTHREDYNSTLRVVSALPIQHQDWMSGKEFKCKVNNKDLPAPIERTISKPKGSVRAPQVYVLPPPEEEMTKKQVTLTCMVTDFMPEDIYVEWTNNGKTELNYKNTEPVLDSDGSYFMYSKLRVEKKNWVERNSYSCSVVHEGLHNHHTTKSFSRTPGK

The target of assay [5] is T5, E285A.
T5 construct: % monomer 83.78; also called MICA*008.mIgG2a E285A
T5 chain: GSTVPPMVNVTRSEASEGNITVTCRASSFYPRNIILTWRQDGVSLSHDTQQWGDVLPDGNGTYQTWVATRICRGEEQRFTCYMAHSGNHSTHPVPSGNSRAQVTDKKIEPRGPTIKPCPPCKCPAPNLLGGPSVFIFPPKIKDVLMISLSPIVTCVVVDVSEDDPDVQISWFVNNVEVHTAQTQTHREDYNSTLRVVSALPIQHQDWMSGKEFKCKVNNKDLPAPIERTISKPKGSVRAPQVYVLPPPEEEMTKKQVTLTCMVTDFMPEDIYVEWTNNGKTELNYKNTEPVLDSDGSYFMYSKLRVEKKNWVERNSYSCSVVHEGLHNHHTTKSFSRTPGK

For assay [6], the target named is T6, I236A.
T6 construct: % monomer 92.49; also called MICA*008.mIgG2a I236A
T6 chain: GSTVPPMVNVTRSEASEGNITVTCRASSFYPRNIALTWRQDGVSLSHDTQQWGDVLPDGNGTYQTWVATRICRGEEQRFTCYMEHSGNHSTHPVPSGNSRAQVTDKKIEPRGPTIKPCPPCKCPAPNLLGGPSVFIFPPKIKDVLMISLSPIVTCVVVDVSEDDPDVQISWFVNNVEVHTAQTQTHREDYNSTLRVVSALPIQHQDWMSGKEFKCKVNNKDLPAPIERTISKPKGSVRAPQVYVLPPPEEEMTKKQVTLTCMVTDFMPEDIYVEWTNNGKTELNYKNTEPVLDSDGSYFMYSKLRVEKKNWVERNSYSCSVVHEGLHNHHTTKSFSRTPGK

Assay [7] addresses T7, E277A.
T7 construct: % monomer 81.58; also called MICA*008.mIgG2a E277A
T7 chain: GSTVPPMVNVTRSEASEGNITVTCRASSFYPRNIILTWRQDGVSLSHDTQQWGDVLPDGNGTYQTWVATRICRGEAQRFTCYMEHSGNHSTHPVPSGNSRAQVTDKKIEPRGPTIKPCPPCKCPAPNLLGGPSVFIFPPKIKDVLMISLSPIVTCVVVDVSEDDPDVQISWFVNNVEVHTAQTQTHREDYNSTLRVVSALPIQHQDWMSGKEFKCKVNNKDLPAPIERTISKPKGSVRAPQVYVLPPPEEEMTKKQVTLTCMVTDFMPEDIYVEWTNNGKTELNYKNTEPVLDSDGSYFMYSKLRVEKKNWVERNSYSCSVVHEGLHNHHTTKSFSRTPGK

B1: 2E5.2.3 Fab (Fab, V domains shown)
VH: QGQMQQSGAELVKPGASVKLSCKTSGFTFSDNYISWLKQKPGQSLEWIAWIYAGTGGTSYNQKFTAKAQLTVDTSSSTAYMQFSSLTTEDSAIYYCARHDYYGTSGAWFAYWGQGTLVTVSA
VL: DVLMTQTPLSLPVSLGDQASLSCRSSQNIVHINGNTYLEWYLQKPGQSPKLLIYKVSNRFSGVPDRFSGSGSGTDFTLKISRVEAEDLGVYYCFQGSHVPWTFGGGTKVEIK
Consider B1, for which the fold-decrease in affinity amounted to 1 in assay [1]; 1.2 in assay [2]; 1.2 in assay [3]; 1 in assay [4]; 0.9 in assay [5]; 0.9 in assay [6]. In addition, in assay [7], the fold-decrease in affinity was 1.1.

B2: 1D5 Fab (Fab, V domains shown)
VH: EIQLQQSGPELVKPGASVKVSCKASGYAFTSQNIYWVKQSHGKSLEWIGYIEPYNVVPMYNPKFKGKATLTVDKSSSSAYIHLNSLTSEDSAIYYCARSGSSNFDYWGQGTTLTVSS
VL: EIILTQSPTTMAASPGEKITITCSASSSISSHYLHWYQQKSGFSPKLLIYRTSNLASGVPARFSGSGSGTSYSLTIGTMEAEDVATYYCQQGSSLPLTFGAGTKVEIK
notes: Expressed in E. coli as chimera of murine variable and human constant domains; not shown: human IgG1 CH1 constant domain; human kappa CL constant domain
On to B2, for which the fold-decrease in affinity stood at 22 in assay [2], 0.05 in assay [3], 1 in assay [4] and 1.9 in assay [7].

B3: 6F8.7 Fab (Fab, V domains shown)
VH: DVQLQGSGPGLVKPSQSLSLTCSVTGYSITNDYYWNWIRQFPGNKLEWMGFISFGGSNNYNPSLKNRISITRDTSKNQFFLKLSSVTTEDTATYYCARYDGRGAWFAYWAQGTLVTVSA
VL: DIQMTQSPASLSASVGETVTITCRASGNIHNYLAWYQQKQGKSPQLLVYDAITLADGVPSRFSGSGSGTQYSLKINSLQPEDFGNYYCQHFWSFPLTFGAGTKVEIK
For the molecule B3, the fold-decrease in affinity in assay [1] was 1.2; in assay [2], 4.3; in assay [3], 1; in assay [4], 0.9; in assay [5], 3.9; in assay [6] it was 1.4. Besides, the fold-decrease in affinity in assay [7] came out at 2.7.

B4: 7D4.6 Fab (Fab, V domains shown)
VH: DVQLQESGPGLVKPSQSLSLTCTVTGYSITSDYAWNWIRQFPRNKLEWMGYINYSGTTNYNPSLKSRISITRDTSKNQFFLQLISVTTEDTATYYCSYYRYDGAWFPYWGQGTLVTVSA
VL: DIQMTQSPASLSASVGETVTITCRASGNIHNYLAWYQQKQGKSPQLLVYNAIMLADGVPSRFSASGSGTQYSLKINSLQPEDFGSYYCQHFWSFPLTFGAGTKVEIK
Turning to B4, the fold-decrease in affinity in assay [1] is 1.6; in assay [2] it was 0.7; in assay [3], 1.1; in assay [4] it was 1; in assay [5] it was 7.9; in assay [6], 1.2. In addition, in assay [7], the fold-decrease in affinity came to 1.3.
